The values below come from publication PMC4707092.

Values joined by “and” are separate entries in the source; they are usually repeats but may differ in a detail not shown here. Equal entries are not always repeated. Where two headings read alike, the source gives them in different places.

As usually defined, the Kd is the equilibrium constant for the complex coming apart.

One experiment has as its target C3b (UniProt P01024). Put plainly: SPR. Background: SPR reads the build-up and loss of mass on a sensor chip optically.
Experiment [1] has as its target C3b C3b (Homo sapiens) (UniProt P01024). The conditions noted are these: cited from earlier work.
Experiment [2] has the same target. As to conditions: cited from earlier work. This is another data set of the same source.

Chain of C3b C3b (Homo sapiens) (P01024 566-670): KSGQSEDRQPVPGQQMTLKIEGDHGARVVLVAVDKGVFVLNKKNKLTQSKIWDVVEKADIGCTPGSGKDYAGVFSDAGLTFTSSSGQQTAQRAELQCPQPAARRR

In turn, “Factor H (from UniProt P08603 19-1231) (natural protein)” yielded a Kd with C3b of 0.647 µM.
Take Factor H CCPs 1-4 (from UniProt P08603): the Kd in the experiment with C3b C3b (Homo sapiens) [1] was 11 µM and 14 µM.
In turn, “Factor H-like protein 1 (natural protein)” had a Kd with C3b of 1.52 µM.
Take “Factor H CCPs 19-20 (from UniProt P08603)”: the Kd with C3b C3b (Homo sapiens) [2] is 5.4 µM and 4 µM.
In the experiment with C3b, FHΔ10–15 showed a KD1 (1:2 binding model, first of two independent sites) of 1.7 µM and a KD2 (1:2 binding model, second of two independent sites) of 5.6 µM.
